Assay [1] has as its target T1, full-length human Regnase-1 with a FLAG tag on the N-terminal side and a biotin ligase BirA recognition … (human, UniProt Q5D1E8 1-599, biotinylated where required ; Biotinylated at the BirA recognition sequence where required. That sequence is not in the letters.).
T1 construct: Expressed in Expi293 cells, purified on FLAG M2 agarose and by gel filtration; also called full-length Regnase-1; human full-length Regnase-1
T1 sequence: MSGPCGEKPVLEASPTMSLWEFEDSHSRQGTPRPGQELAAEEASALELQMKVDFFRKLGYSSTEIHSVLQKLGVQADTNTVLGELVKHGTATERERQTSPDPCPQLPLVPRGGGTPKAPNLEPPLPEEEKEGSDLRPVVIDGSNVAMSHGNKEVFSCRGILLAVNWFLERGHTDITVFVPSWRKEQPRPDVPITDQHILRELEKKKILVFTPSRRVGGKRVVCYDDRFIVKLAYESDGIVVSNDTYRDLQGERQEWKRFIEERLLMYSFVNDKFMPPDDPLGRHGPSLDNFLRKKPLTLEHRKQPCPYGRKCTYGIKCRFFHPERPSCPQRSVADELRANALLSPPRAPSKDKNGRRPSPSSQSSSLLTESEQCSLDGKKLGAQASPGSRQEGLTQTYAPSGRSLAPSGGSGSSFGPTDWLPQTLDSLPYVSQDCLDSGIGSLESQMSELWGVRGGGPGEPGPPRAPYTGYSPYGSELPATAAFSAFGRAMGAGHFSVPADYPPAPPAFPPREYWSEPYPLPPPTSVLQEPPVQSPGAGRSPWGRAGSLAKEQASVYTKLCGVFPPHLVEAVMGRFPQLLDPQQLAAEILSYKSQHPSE
The assay can be described thus: flow cytometry of antigen-coated streptavidin beads.

In assay [2] the target is T2, Peptide 1 (CLDSGIGSLESQMSELWGVRGG), biotin-conjugated (human, biotin-conjugated).
T2 construct: also called human Regnase-1 peptide
T2 peptide: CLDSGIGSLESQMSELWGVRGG
Described as above.

Residue numbers refer to the chain shown, from its start.

B1: REB0022 (antibody, V domains shown)
VH: QEQLEESGGDLVKPEGSLTLTCTASGGSFSSRYWMCWVRQAPGKGLEWIACIVIGDRNNYYASWAKGRFTISKTSSTTVTLQMTSLTAADTATYFCARWHSSTAPSLWGPGTLVTVSS
VL: DVVMTQTPASVSEPVGGTVTINCQASQSISSYLSWYQQKPGQPPKLLIYKASTLASGVSSRFKGSGSGTEFTLTISDLECADAATYYCQCSYYVSGFVFGGGTEVVVKG
notes: Rabbit antibody gene expressed in HEK293 cells, purified by Protein A; also called anti-Regnase-1 antibody; anti-non-phosphorylated Regnase-1 peptide antibody
Turning to B1, the binding result in assay [1] was “binds”.

B2: REA0023 (antibody, V domains shown)
VH: QSLEESGGDLVKPGASLTLTCTDAGFSFSGVYWMHWVRQAPGKGLEWIACINAGSSGSTYYASWAKGRFTISKPSSTTVTLQMTSLTVADTATYFCARSFTLWGPGTLVTVSS
VL: AVVTQTPSSVSAAVGGTVTIKCQSSQSVGNNNYLAWFQQKPGQPPKLLIYSASTLASGVPSRFSGSGSGTQFTLTISGVQCDDAATYYCLGGYDGDGEAFYVFGGGTEVVVKG
notes: as for B1
Turning to B2, the binding result in assay [1] and in assay [2] was “binds” throughout.

B3: REA0027 (antibody, V domains shown)
VH: B2 VH with D23A, A24S, S27G, G30S, V31S, G57T, S58K, R98W, T101N
VL: B2 VL with Y33W
notes: as for B1
With B3, the binding result in assay [1] and in assay [2] was “binds” each time.

The record behind these values is patent publication US20220125891A1 (OSAKA UNIVERSITY, published 2022).
